Key:
Format in all cases: binding
htau40 = htau40 (Homo sapiens, UniProt P10636); experiment: Biacore X100 SPR of anti-tau mAbs on immobilised htau40; conditions: mAb, Table 27, immobilised hT40
In short: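 htau40 amine-coupled to a CM5 chip (~250 RU); mAb injected at 0.78–25 nM in HBS-EP+ at 30 μL/min, 120 s association, 600 s dissociation, glycine pH 1.5 regeneration. Kinetics and affinity from 1:1 binding fit with reference-cell subtraction.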

[1] = test system: tau protein in brain homogenate; experiment: Capture ELISA on transgenic mouse brain lysates; conditions: S1D12 mAb capture; WT, L1, L66+/- and L66+/+
Description: Mouse brain lysates were prepared from wildtype, Line 1, Line 66+/+ and Line 66+/− (Melis et al., 2015, all surplus from Charles River, part of study R0144). All animals were female, 7-8 months old except Line 66+/+ which were 5 months old. […] The L1 cDNA construct (FIG. 23) contains human tau cDNA coding for amino acid residues 296-390 with a signal sequence and related sequences in a murine Thy-1 expression cassette. For brain lysate preparation, half brains were sectioned into four and the individual sections were homogenised in 400 μl of ice cold RIPA buffer (Cell signalling Technology) containing protease and phosphatase inhibitors. Total protein concentrations for individual samples were established by BCA-assay and each sample was subsequently diluted to 1 mg/ml for future experiments.
For capture ELISA, 100 µL S1D12 capture mAb was used to coat a nunc 96 well Maxisorp plate at 1 μg/ml and incubated for 1 hour at 37° C. Plate was washed as previously and then blocked for 1 hour at 37° C., in 2% MPBS. Brain homogenate samples (50 ng total protein) from each mouse type were added to the first wells and double diluted across the plate in PBS. These samples were left to incubate at RT for 1 hour. Various detection scAbs encompassing epitopes of interest were then added to the plate at 1 μg/ml and incubated for 1 h at RT. […]

hT40 = hT40 (Homo sapiens, UniProt P10636); experiment: Biacore X100 SPR, scAb captured via anti-HuCk, hT40 as analyte; conditions: scAb, Table 23, T441 (hT40)
In short: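 Captured scAb on anti-HuCk CM5 surface (flow cell 1 as reference) in HBS-EP+, capture set for theoretical RMax 100 RU; hT40 injected multi-cycle (0.15625–100 nM) or single-cycle (6.25–100 nM), 120 s association, 420 s dissociation, glycine pH 2.0 regeneration. Kinetics and affinity from 1:1 binding model fit.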

tau fragments in plasma = experiment: Capture ELISA on transgenic mouse plasma; conditions: detection scAb, Line66 transgenic model
Description: Plasma samples from WT, L1, L66+/− and L66^+/+ of various ages (1.5-9 months) were taken as described. Mice were terminally anaesthetized using an overdose of sodium pentobarbital and blood was collected through cardiac puncture through a Plastipak syringe pre-rinsed with heparinised saline heparin (10 U/ml) (Heparin sodium salt; Sigma-Aldrich) and transferred into a plastic vial containing lithium heparin anticoagulant (Sarstedt Ltd.) Blood samples, kept on ice for no more than 30 minutes, were centrifuged to obtain plasma at 2000× g for 5 minutes at 6° C. Plasma samples were stored at −20° C.
For mouse plasma capture ELISA, 100 μL capture mAb was coated to the bottom of a black nunc 96 well ‘maxisorp’ plate at 2.5 μg/ml and incubated for 1 hour at 37° C. After washing and blocking as normal, several known standard solutions were set up in triplicate starting at 20 ng/ml of the desired protein before double diluted in the remaining wells. Mouse samples were added to wells in duplicate with a blank in between each sample group. Line1 plasma was diluted 1:10 before addition to plate to account for its high concentration while other samples were diluted 1:2 to account for potential matrix effects. […] The ELISA was developed using SuperSignal ELISA Femto Substrate (Thermo Scientific) and total luminescence was read on Clariostar Plus plate reader (BMG Labtech). […]

human tau and mouse tau = experiment: Western blot of WT, L66+/+ and L1+/+ mouse brain homogenates; conditions: 20 μg protein, 5-month-old mice
Description: Protein equivalent to 20 μg from each brain extract was separated using 4-20% bis-tris gels and run in 1×MES buffer.
A band is detected in each sample (WT, L66^+/+ and L1^+/+) with an apparent molecular weight of approximately 55 kDa. This band most likely corresponds to endogenous mouse tau which is of a similar size. In the L66^+/+ samples, a second band running at approximately 68 kDa is also detected. The presence of numerous other bands indicates proteolytic truncation of tau within brain homogenates.

hT40, sequence (P10636 1-441 isoform P10636-8): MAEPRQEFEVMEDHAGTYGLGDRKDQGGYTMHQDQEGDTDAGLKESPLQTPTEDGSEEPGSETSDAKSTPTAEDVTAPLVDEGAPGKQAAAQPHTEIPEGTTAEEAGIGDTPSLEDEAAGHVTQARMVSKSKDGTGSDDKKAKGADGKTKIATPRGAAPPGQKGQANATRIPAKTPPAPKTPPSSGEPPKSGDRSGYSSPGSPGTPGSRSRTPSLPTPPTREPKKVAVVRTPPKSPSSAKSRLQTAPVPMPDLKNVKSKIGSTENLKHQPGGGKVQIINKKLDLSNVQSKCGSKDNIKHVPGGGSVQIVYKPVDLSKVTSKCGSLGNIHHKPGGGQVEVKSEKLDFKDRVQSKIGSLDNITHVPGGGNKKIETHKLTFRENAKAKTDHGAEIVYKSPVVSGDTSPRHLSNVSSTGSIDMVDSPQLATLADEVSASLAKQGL
htau40, sequence (P10636 1-441 isoform P10636-8): as above

B1: CB7: anti-tau clone, SEQ ID NO: 364 (protein)
scFv: QVQLQESGPSLVKPSQTLSLTCTVSGFSLTNYRVGWVRQAPGKALEWVSNIRSGGTTWYNPALKSRLSITADTSKSQVSLSLSSVTTEDTAVYYCARDSSGDLYAYDYWGPGLLVTVSSEGKSSGASGESKVDDQAVLTQPSSVSRSLGQSVSMTCSGSSSNVGYGNYMAWFQQVPGSAPKLLIYGATSRASGVPDRFSGSRSGNTATLTISSLQAEDEADYYCASYDSTSGGVFGSGTRLTVLG
modifications: CB7 amino acid sequence
Question: Which results are given for B1?
Answer: ka (htau40): 2.568e+06 M⁻¹ s⁻¹; kd (htau40): 0.009451 s⁻¹; tau detection in mouse brain homogenate [1]: hT40 tau was specifically detected in L66 samples; ka (hT40): 133400 M⁻¹ s⁻¹; kd (hT40): 0.0006936 s⁻¹; cross reaction with endogenous mouse tau protein (tau fragments in plasma): does not cross react with endogenous mouse tau protein; bands detected in western blot of WT, L66+/+ and L1+/+ brain homogenates (human tau and mouse tau): show specificity for human tau

Source: US12624096B2, “Anti-tau antibodies and methods of use thereof” (GTInvent Limited, priority 2020, dated 2026)
